Measured values from PMC3482342 (Journal of molecular biology, 2011).

Target: T1, Full-length MukF (E. coli, UniProt P60293 1-440)
T1 sequence (looked up): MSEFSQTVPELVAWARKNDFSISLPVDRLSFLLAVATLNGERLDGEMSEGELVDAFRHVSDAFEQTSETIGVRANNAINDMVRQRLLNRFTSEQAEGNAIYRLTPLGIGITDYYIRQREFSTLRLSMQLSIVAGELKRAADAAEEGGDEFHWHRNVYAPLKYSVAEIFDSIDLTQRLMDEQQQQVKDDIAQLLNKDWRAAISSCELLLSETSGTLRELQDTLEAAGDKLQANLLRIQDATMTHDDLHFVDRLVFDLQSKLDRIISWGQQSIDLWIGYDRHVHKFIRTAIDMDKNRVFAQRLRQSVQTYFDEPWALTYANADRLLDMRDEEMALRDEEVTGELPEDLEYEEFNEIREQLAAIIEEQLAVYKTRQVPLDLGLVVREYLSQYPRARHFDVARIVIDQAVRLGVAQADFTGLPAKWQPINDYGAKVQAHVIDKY
Assay: AUC

B1: MukE-DRER (MukE-D196A/R198A/E199S/R202S) (natural protein, E. coli, UniProt P22524 10-234, looked up)
chain: MPVKLAQALANPLFPALDSALRSGRHIGLDELDNHAFLMDFQEYLEEFYARYNVELIRAPEGFFYLRPRSTTLIPRSVLSELDMMVGKILCYLYLSPERLANEGIFTQQELYDELLTLADEAKLLKLVNNRSTGSDVDRQKLQEKVRSSLNRLRRLGMVWFMGHDSSKFRITESVFRFGADVRAGDAPASAQSRLIRDGEAMPIENHLQLNDETEENQPDSGEEE
- stoichiometry N: 2 MukE per MukF
